Numbered stars: 1 amine (or outer) side, 2 acyl side, 3 side chain; on linkers, the order of the positions; unused ones are H or OH. Bridge positions count the residues as written; N and C are the ends. Side chains are listed from the residue outwards. Ends that are not written are not given here. * marks the point of attachment. C20 diacid = O=C(O)CCCCCCCCCCCCCCCCCCC(=O)*; γGlu = O=C(O)[C@H](CCC(=O)[*:2])N[*:1]
B1: N^ε1-[(4S)-4-carboxy-4-(19-carboxynonadecanoylamino)butanoyl]-[Arg17,Pro21,Pro27,Arg34]-h-amylin (peptide)
peptide: K([γGlu-C20 diacid])CNTATCATQRLANFLRHSSPNFGAIPSSTNVGRNTY-NH2
modifications: disulfide 2-7; N-terminus assumed
SMILES: CC[C@H](C)[C@H](NC(=O)[C@H](C)NC(=O)CNC(=O)[C@H](Cc1ccccc1)NC(=O)[C@H](CC(N)=O)NC(=O)[C@@H]1CCCN1C(=O)[C@H](CO)NC(=O)[C@H](CO)NC(=O)[C@H](Cc1c[nH]cn1)NC(=O)[C@H](CCCNC(=N)N)NC(=O)[C@H](CC(C)C)NC(=O)[C@H](Cc1ccccc1)NC(=O)[C@H](CC(N)=O)NC(=O)[C@H](C)NC(=O)[C@H](CC(C)C)NC(=O)[C@H](CCCNC(=N)N)NC(=O)[C@H](CCC(N)=O)NC(=O)[C@@H](NC(=O)[C@H](C)NC(=O)[C@@H]1CSSC[C@H](NC(=O)[C@@H](N)CCCCNC(=O)CC[C@H](NC(=O)CCCCCCCCCCCCCCCCCCC(=O)O)C(=O)O)C(=O)N[C@@H](CC(N)=O)C(=O)N[C@@H]([C@@H](C)O)C(=O)N[C@@H](C)C(=O)N[C@@H]([C@@H](C)O)C(=O)N1)[C@@H](C)O)C(=O)N1CCC[C@H]1C(=O)N[C@@H](CO)C(=O)N[C@@H](CO)C(=O)N[C@H](C(=O)N[C@@H](CC(N)=O)C(=O)N[C@H](C(=O)NCC(=O)N[C@@H](CCCNC(=N)N)C(=O)N[C@@H](CC(N)=O)C(=O)N[C@H](C(=O)N[C@@H](Cc1ccc(O)cc1)C(N)=O)[C@@H](C)O)C(C)C)[C@@H](C)O
notes: Analogue of human amylin; also called compound 79
B2: N^ε1-[(4S)-4-carboxy-4-(19-carboxynonadecanoylamino)butanoyl]-[Arg17,Pro21,Pro27,His35]-h-amylin (peptide)
peptide: K([γGlu-C20 diacid])CNTATCATQRLANFLRHSSPNFGAIPSSTNVGSHTY-NH2
modifications: disulfide 2-7; N-terminus assumed
SMILES: CC[C@H](C)[C@H](NC(=O)[C@H](C)NC(=O)CNC(=O)[C@H](Cc1ccccc1)NC(=O)[C@H](CC(N)=O)NC(=O)[C@@H]1CCCN1C(=O)[C@H](CO)NC(=O)[C@H](CO)NC(=O)[C@H](Cc1c[nH]cn1)NC(=O)[C@H](CCCNC(=N)N)NC(=O)[C@H](CC(C)C)NC(=O)[C@H](Cc1ccccc1)NC(=O)[C@H](CC(N)=O)NC(=O)[C@H](C)NC(=O)[C@H](CC(C)C)NC(=O)[C@H](CCCNC(=N)N)NC(=O)[C@H](CCC(N)=O)NC(=O)[C@@H](NC(=O)[C@H](C)NC(=O)[C@@H]1CSSC[C@H](NC(=O)[C@@H](N)CCCCNC(=O)CC[C@H](NC(=O)CCCCCCCCCCCCCCCCCCC(=O)O)C(=O)O)C(=O)N[C@@H](CC(N)=O)C(=O)N[C@@H]([C@@H](C)O)C(=O)N[C@@H](C)C(=O)N[C@@H]([C@@H](C)O)C(=O)N1)[C@@H](C)O)C(=O)N1CCC[C@H]1C(=O)N[C@@H](CO)C(=O)N[C@@H](CO)C(=O)N[C@H](C(=O)N[C@@H](CC(N)=O)C(=O)N[C@H](C(=O)NCC(=O)N[C@@H](CO)C(=O)N[C@@H](Cc1c[nH]cn1)C(=O)N[C@H](C(=O)N[C@@H](Cc1ccc(O)cc1)C(N)=O)[C@@H](C)O)C(C)C)[C@@H](C)O
notes: Analogue of human amylin; also called compound 60
B3: N^ε1-[(4S)-4-carboxy-4-(19-carboxynonadecanoylamino)butanoyl]-[His14,Arg17,Pro21,Pro27,His34]-h-amylin (peptide)
peptide: K([γGlu-C20 diacid])CNTATCATQRLAHFLRHSSPNFGAIPSSTNVGHNTY-NH2
modifications: disulfide 2-7; N-terminus assumed
SMILES: CC[C@H](C)[C@H](NC(=O)[C@H](C)NC(=O)CNC(=O)[C@H](Cc1ccccc1)NC(=O)[C@H](CC(N)=O)NC(=O)[C@@H]1CCCN1C(=O)[C@H](CO)NC(=O)[C@H](CO)NC(=O)[C@H](Cc1c[nH]cn1)NC(=O)[C@H](CCCNC(=N)N)NC(=O)[C@H](CC(C)C)NC(=O)[C@H](Cc1ccccc1)NC(=O)[C@H](Cc1c[nH]cn1)NC(=O)[C@H](C)NC(=O)[C@H](CC(C)C)NC(=O)[C@H](CCCNC(=N)N)NC(=O)[C@H](CCC(N)=O)NC(=O)[C@@H](NC(=O)[C@H](C)NC(=O)[C@@H]1CSSC[C@H](NC(=O)[C@@H](N)CCCCNC(=O)CC[C@H](NC(=O)CCCCCCCCCCCCCCCCCCC(=O)O)C(=O)O)C(=O)N[C@@H](CC(N)=O)C(=O)N[C@@H]([C@@H](C)O)C(=O)N[C@@H](C)C(=O)N[C@@H]([C@@H](C)O)C(=O)N1)[C@@H](C)O)C(=O)N1CCC[C@H]1C(=O)N[C@@H](CO)C(=O)N[C@@H](CO)C(=O)N[C@H](C(=O)N[C@@H](CC(N)=O)C(=O)N[C@H](C(=O)NCC(=O)N[C@@H](Cc1c[nH]cn1)C(=O)N[C@@H](CC(N)=O)C(=O)N[C@H](C(=O)N[C@@H](Cc1ccc(O)cc1)C(N)=O)[C@@H](C)O)C(C)C)[C@@H](C)O
notes: Analogue of human amylin; also called compound 81
B4: N^ε1-[(4S)-4-carboxy-4-(19-carboxynonadecanoylamino)butanoyl]-[Glu14,Arg17,Pro21,Pro27,Arg35]-h-amylin (peptide)
peptide: K([γGlu-C20 diacid])CNTATCATQRLAEFLRHSSPNFGAIPSSTNVGSRTY-NH2
modifications: disulfide 2-7; N-terminus assumed
SMILES: CC[C@H](C)[C@H](NC(=O)[C@H](C)NC(=O)CNC(=O)[C@H](Cc1ccccc1)NC(=O)[C@H](CC(N)=O)NC(=O)[C@@H]1CCCN1C(=O)[C@H](CO)NC(=O)[C@H](CO)NC(=O)[C@H](Cc1c[nH]cn1)NC(=O)[C@H](CCCNC(=N)N)NC(=O)[C@H](CC(C)C)NC(=O)[C@H](Cc1ccccc1)NC(=O)[C@H](CCC(=O)O)NC(=O)[C@H](C)NC(=O)[C@H](CC(C)C)NC(=O)[C@H](CCCNC(=N)N)NC(=O)[C@H](CCC(N)=O)NC(=O)[C@@H](NC(=O)[C@H](C)NC(=O)[C@@H]1CSSC[C@H](NC(=O)[C@@H](N)CCCCNC(=O)CC[C@H](NC(=O)CCCCCCCCCCCCCCCCCCC(=O)O)C(=O)O)C(=O)N[C@@H](CC(N)=O)C(=O)N[C@@H]([C@@H](C)O)C(=O)N[C@@H](C)C(=O)N[C@@H]([C@@H](C)O)C(=O)N1)[C@@H](C)O)C(=O)N1CCC[C@H]1C(=O)N[C@@H](CO)C(=O)N[C@@H](CO)C(=O)N[C@H](C(=O)N[C@@H](CC(N)=O)C(=O)N[C@H](C(=O)NCC(=O)N[C@@H](CO)C(=O)N[C@@H](CCCNC(=N)N)C(=O)N[C@H](C(=O)N[C@@H](Cc1ccc(O)cc1)C(N)=O)[C@@H](C)O)C(C)C)[C@@H](C)O
notes: Analogue of human amylin; also called compound 51
B5: N^ε1-[(4S)-4-carboxy-4-(19-carboxynonadecanoylamino)butanoyl]-[Arg17,Pro21,Pro27,His34]-h-amylin (peptide)
peptide: K([γGlu-C20 diacid])CNTATCATQRLANFLRHSSPNFGAIPSSTNVGHNTY-NH2
modifications: disulfide 2-7; N-terminus assumed
SMILES: CC[C@H](C)[C@H](NC(=O)[C@H](C)NC(=O)CNC(=O)[C@H](Cc1ccccc1)NC(=O)[C@H](CC(N)=O)NC(=O)[C@@H]1CCCN1C(=O)[C@H](CO)NC(=O)[C@H](CO)NC(=O)[C@H](Cc1c[nH]cn1)NC(=O)[C@H](CCCNC(=N)N)NC(=O)[C@H](CC(C)C)NC(=O)[C@H](Cc1ccccc1)NC(=O)[C@H](CC(N)=O)NC(=O)[C@H](C)NC(=O)[C@H](CC(C)C)NC(=O)[C@H](CCCNC(=N)N)NC(=O)[C@H](CCC(N)=O)NC(=O)[C@@H](NC(=O)[C@H](C)NC(=O)[C@@H]1CSSC[C@H](NC(=O)[C@@H](N)CCCCNC(=O)CC[C@H](NC(=O)CCCCCCCCCCCCCCCCCCC(=O)O)C(=O)O)C(=O)N[C@@H](CC(N)=O)C(=O)N[C@@H]([C@@H](C)O)C(=O)N[C@@H](C)C(=O)N[C@@H]([C@@H](C)O)C(=O)N1)[C@@H](C)O)C(=O)N1CCC[C@H]1C(=O)N[C@@H](CO)C(=O)N[C@@H](CO)C(=O)N[C@H](C(=O)N[C@@H](CC(N)=O)C(=O)N[C@H](C(=O)NCC(=O)N[C@@H](Cc1c[nH]cn1)C(=O)N[C@@H](CC(N)=O)C(=O)N[C@H](C(=O)N[C@@H](Cc1ccc(O)cc1)C(N)=O)[C@@H](C)O)C(C)C)[C@@H](C)O
notes: Analogue of human amylin; also called compound 77

These binders were tested against T1, rat calcitonin receptor (rat, UniProt P32214 25-516) (assay: IC50 on rat CTR divided by IC50 on rat amylin receptor (Assays VIII/VI)).
T1 construct: whole, on cells; Used as membranes prepared from BHK tk'ts 13 cells transiently transfected with the rat calcitonin receptor (Assay VIII); also called rCTR; rat calcitonin (a) receptor
T1 sequence (looked up): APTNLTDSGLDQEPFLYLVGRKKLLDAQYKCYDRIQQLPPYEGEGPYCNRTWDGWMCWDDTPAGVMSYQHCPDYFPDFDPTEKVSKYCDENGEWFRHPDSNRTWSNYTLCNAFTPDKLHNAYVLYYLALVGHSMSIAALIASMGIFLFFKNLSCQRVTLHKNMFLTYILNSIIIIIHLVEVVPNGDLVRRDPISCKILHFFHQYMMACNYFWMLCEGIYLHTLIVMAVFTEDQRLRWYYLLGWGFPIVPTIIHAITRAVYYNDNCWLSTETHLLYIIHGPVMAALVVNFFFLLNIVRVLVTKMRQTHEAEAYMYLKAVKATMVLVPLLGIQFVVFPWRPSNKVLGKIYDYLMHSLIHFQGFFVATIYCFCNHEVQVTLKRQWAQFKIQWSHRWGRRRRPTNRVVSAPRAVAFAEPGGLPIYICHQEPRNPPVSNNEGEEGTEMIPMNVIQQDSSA
With B1 the “Ratio rCT/rAmylin binding” value was 21.5. For B2, the “Ratio rCT/rAmylin binding” value was 122. In the case of B3, the “Ratio rCT/rAmylin binding” value is reported as 42.9. B4 was tested, and the “Ratio rCT/rAmylin binding” value was 119. For B5, the “Ratio rCT/rAmylin binding” value was 137.

What follows are binders tested against T2, human calcitonin receptor (human, UniProt P30988 25-474) (assay: IC50 on human CTR divided by IC50 on human amylin receptor (Assays VII/V)).
T2 construct: whole, on cells; Used as membranes prepared from a BHK tk'ts 13 cell line stably transfected with the human calcitonin receptor (Assay VII); also called hCTR; hCT
T2 sequence (looked up): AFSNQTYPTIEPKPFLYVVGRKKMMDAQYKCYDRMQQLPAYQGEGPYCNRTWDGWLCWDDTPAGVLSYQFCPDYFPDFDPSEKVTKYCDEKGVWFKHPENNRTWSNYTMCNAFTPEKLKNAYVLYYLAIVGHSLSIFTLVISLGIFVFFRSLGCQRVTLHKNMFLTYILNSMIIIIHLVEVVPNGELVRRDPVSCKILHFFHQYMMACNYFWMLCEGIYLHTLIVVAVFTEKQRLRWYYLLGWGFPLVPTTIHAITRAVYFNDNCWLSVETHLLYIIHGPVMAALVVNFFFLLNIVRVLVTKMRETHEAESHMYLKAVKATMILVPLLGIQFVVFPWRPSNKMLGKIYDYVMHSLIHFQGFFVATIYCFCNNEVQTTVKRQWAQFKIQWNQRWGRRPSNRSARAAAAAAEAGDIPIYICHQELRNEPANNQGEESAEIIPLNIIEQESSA
Summary of the method: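 Competition binding by SPA with cell membranes (35 ng/μL) and SPA beads in 50 mM Hepes pH 7.4 with 1 mM CaCl2, 5 mM MgCl2, 0.1% OA and 0.02% Tween20. Incubated 120 min at 25 °C with shaking, then counted.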
B1 was tested, and the “Ratio hCT/hAmylin binding” value was 46.1. With B2 the “Ratio hCT/hAmylin binding” value was 45.2. In the case of B3, the “Ratio hCT/hAmylin binding” value is reported as 87.2. With B4 the “Ratio hCT/hAmylin binding” value was 37.5. In the case of B5, the “Ratio hCT/hAmylin binding” value is reported as 118.

What follows are binders tested against T1, rat calcitonin receptor (assay: SPA competition with 125I-calcitonin, membranes of BHK cells with rat CTR (Assay VIII)).
For B1, the IC50 was 35.5 nM. B2 was tested, and the IC50 was 26.3 nM. For B3, the IC50 was 61.1 nM. Work on B4 yielded an IC50 of 62 nM. Work on B5 yielded an IC50 of 205 nM.

The binders below were run against T3, rat amylin receptor (rat calcitonin receptor + rat RAMP 3) (rat, UniProt P32214 25-516; Q9JJ73 23-147) (assay: SPA competition with 125I-rat amylin, membranes of BHK cells with rat CTR + rat RAMP3 (Assay VI)).
T3 construct: whole, on cells; Used as membranes prepared from BHK tk'ts 13 cells transiently transfected with rat calcitonin receptor and rat RAMP 3 (Assay VI); also called rAmylin-R; rat amylin 3(a) receptor
T3 sequence (looked up) 1: T1 sequence (looked up)
T3 sequence (looked up) 2: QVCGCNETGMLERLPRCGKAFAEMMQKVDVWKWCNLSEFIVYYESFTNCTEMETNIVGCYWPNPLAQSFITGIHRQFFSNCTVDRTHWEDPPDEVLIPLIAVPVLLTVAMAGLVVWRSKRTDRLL
Binder B1 has an IC50 of 1.65 nM. B2 showed an IC50 of 0.215 nM. B3 was tested, and the IC50 was 1.42 nM. Binder B4 has an IC50 of 0.523 nM. B5 was tested, and the IC50 was 1.5 nM.

Reference: patent US20140087995A1 (published 2014)
